Laboratory results taken from paper PMC11220700, “Activation and Purification of ß‐Glucocerebrosidase by Exploiting its Transporter LIMP‐2 – Implications for Novel Treatment Strategies in Gaucher's and Parkinson's Disease” (Advanced Science, 2024).
*: point of attachment. Biotin = O=C1N[C@H]2[C@H](CS[C@H]2CCCCC(=O)*)N1

Target: imiglucerase/Cerezyme (recombinant GCase, Sanofi Genzyme), P04062
Sequence (P04062 40-536): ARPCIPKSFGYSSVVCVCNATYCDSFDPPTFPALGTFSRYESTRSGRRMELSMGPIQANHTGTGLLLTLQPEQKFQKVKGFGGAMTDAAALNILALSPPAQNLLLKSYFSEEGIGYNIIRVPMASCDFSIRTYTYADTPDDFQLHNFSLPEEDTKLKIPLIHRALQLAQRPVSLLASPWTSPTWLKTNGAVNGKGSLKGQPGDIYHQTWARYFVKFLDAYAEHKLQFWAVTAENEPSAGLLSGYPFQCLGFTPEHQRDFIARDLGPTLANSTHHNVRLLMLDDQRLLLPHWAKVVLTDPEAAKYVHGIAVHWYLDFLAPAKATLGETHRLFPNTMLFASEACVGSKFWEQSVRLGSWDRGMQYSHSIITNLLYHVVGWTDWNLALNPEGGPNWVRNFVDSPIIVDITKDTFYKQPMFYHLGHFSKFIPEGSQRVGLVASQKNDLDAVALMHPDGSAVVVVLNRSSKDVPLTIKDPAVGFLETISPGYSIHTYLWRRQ

Binder: Biotin-KFERQGSGSQVHFLREIIEAMLKAYQSGSGYGRKKRRQRRR-NH2 [L2H5‐wt peptide (LIMP‐2‐derived helix 5 peptide)]
- other: 2.63 fold
